The record followed here is US20180094062A1 (Hoffmann-La Roche, published 2018).

The labels stand for the following.
T1: human recombinant HER4 Extracellular Domain (HER4 ECD) (human, UniProt Q15303 26-651)
T1 sequence: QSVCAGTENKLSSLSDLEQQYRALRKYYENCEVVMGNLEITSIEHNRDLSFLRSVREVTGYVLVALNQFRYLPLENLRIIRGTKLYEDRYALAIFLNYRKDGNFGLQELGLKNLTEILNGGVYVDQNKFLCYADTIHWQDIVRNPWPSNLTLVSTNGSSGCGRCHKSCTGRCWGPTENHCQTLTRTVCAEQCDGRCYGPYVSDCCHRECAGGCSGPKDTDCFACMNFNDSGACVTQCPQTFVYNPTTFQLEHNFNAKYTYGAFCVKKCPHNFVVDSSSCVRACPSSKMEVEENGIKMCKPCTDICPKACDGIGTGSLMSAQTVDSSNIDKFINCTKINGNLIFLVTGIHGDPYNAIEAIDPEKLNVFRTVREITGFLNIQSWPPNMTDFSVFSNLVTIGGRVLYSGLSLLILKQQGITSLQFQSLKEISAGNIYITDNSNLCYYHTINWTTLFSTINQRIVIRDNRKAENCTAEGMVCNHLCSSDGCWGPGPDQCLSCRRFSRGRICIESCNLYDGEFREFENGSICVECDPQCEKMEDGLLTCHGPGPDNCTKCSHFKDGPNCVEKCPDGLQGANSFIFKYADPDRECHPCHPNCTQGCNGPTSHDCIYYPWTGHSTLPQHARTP

T2: TtSlyDcas
T2 construct: negative control scaffold without the HER3 β-hairpin
T2 chain: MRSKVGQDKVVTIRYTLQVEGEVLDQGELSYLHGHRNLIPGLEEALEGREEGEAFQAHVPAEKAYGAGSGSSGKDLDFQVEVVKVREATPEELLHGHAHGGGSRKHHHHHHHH

T3: TtSlyDcas-Her3
T3 chain: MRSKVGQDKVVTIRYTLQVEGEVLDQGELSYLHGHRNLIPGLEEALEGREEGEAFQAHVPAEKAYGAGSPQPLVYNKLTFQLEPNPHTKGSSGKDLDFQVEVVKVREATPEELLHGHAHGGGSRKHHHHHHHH

T4: TgSlyDser-Her3
T4 chain: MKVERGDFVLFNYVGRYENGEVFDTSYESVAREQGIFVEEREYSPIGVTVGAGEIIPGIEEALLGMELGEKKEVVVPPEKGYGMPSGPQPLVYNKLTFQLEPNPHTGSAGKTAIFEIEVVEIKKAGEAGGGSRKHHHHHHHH

B1: anti-HER3 antibody M-46-01 (antibody, V domains shown)
VH: QIQLQQSGPQLVRPGASVKISCKASGYSFTSYWMHWVKQRPGRGLEWIGMIDPSDGVTRLNQKFKDKATLTVDNSSSTAYMQLSSPTSEDSAVHYCARVDVLYWYFDVWGAGTTVTVSS
VL: DIVLTQSPASLAVSLGQRATISCRASKSISISGYSYMHWYQQKAGQPPKLLIYLTSNLESGVPARFSGSGSGTDFTLNIHPVEEEDAATYYCHHSRELPFTFGSGTKLEIK
notes: mouse hybridoma clone
B2: anti-HER3 antibody M-08-11 (antibody, V domains shown)
VH: QAYLQQSGAELMRPGASVRMSCQASGYTFTSYTIHWLKQTPRQGLEWIGAIYPRNGDFSYNQKFKDKASLTVDTSSSTAYMHLSSLTSEDSAVYFCARTINYGDWFAYWGQGTLVTVSA
VL: DIQMIQSPASLFVSEGETVIITCRASENIYSNLAWYHQKKGKSPQVLVYAAIKLADGVPLRFSGSGSGTQFSLKINSLQSEDFGSYYCQHFWGPPYTFGSGTNLEIK
notes: mouse monoclonal antibody from hybridoma, tested as hybridoma supernatant or as antibody; also called M-011
B3: anti-HER3 antibody M-17-02 (antibody, V domains shown)
VH: EVQLQQSGTVLARPGASVKMSCKASGYSFTSYWIHWVKQRPGQGLEWIGAIYPGNSDTTYNQKFKGKAKLTAVTSASTAYMELSSLTNEDSAVYYCARTGVWTSYYFDYWGQGTTLTVSS
VL: DIQMTQSPASLSASVGETVTITCRASENIYSNLAWYQQKQGKSPQLLVYAATNLADGVPSRFSGSGSGTQFSLRINSLQPEDFGSYYCQHFYGTPFTFGTGTKLEIK
notes: mouse hybridoma clone
B4: anti-HER3 antibody M-43-01 (antibody, V domains shown)
VH: EVQLQQSGTVLARPGASVKMSCKASDYTFSNYWVHWVKQRPGQGLEWIGAIYPGNGDSTYYQKFKGKATLTAVTSTSTAYMDLSSLTNGDSAVYFCTRSGVGYNYYFDYWGQGTTLTVSS
VL: B3 VL with A50I, R74K, F83L, K107E
notes: mouse hybridoma clone

Numbering of substitutions follows the chain as printed.

The first assay addresses T5, human recombinant HER3 Extracellular Domain (HER3 ECD) (human, UniProt P21860 20-643).
T5 construct: 68 kDa; also called human-Her3-ECD
Kind of assay: ELISA, antigen coated, hybridoma supernatant. The procedure:
(§1) For the ELISA screening an antigen down format was used. […] Hybridoma Supernatant was added to the plates and incubated for 1 h at room temperature. Bound antibody was detected with a HRP-labeled F(ab′)₂ goat anti-mouse Fcγ (Dianova) and ABTS (Roche) was used as a HRP-substrate.
(§2) As negative controls the scaffold proteins TtSlyDcas and TgSlyDΔIF were used.
(In general: ELISA stands for enzyme-linked immunosorbent assay.)
With B1, the “OD 405 nm” value was determined as 1.35 OD.
Same read-out and setting: the figure for B2 is 3.15 OD; for B3 it is 2.96 OD.
On the same count and under the same terms, the figure for B4 is 1.44 OD.

The next assay deals with T6, human HER1 Extracellular Domain (HER1 ECD) (human, UniProt P00533 25-645).
T6 construct: also called EGFR ECD
Kind of assay: ELISA, antigen coated, hybridoma supernatant. On the procedure:
as §1, §2
For the molecule B1, the “OD 405 nm” value was 0.043 OD and the binding result was “no binding”.
With B2, the “OD 405 nm” value amounted to 0.06 OD and the binding result is “no binding”.
For B3, the “OD 405 nm” value came to 0.028 OD and the binding result is reported as “no binding”.
Consider B4, for which the “OD 405 nm” value is 0.043 OD and the binding result is “no binding”.

Another assay has as its target human HER2 Extracellular Domain (HER2 ECD) (human, UniProt P04626 23-652). Kind of assay: ELISA, antigen coated, hybridoma supernatant. On the procedure: as §1, §2
On to B1, for which the “OD 405 nm” value was determined as 0.04 OD and the binding result was “no binding”.
For B2 the same measures were 0.025 OD and “no binding”.
The like results for B3 were, in that order, 0.03 OD and “no binding”.
The like results for B4 were, in that order, 0.045 OD and “no binding”.

For the next assay, the target named is T1, human recombinant HER4 Extracellular …. Kind of assay: ELISA, antigen coated, hybridoma supernatant. The procedure: as §1, §2
With B1, the “OD 405 nm” value was determined as 0.032 OD and the binding result was “no binding”.
For B2 the same measures were 0.024 OD and “no binding”.
On to B3, for which the “OD 405 nm” value is 0.025 OD and the binding result is given as “no binding”.
For B4 the same measures were 0.04 OD and “no binding”.

The next assay addresses T2, TtSlyDcas. Kind of assay: ELISA, antigen coated, hybridoma supernatant. On the procedure: as §1, §2
On to B1, for which the “OD 405 nm” value stood at 0.038 OD.
The same measure, in the same setting: the figure for B2 is 0.038 OD; for B3 it is 0.023 OD; for B4 it is 0.018 OD.

Another assay has as its target T3, TtSlyDcas-Her3. Kind of assay: ELISA, antigen coated, hybridoma supernatant. The procedure: as §1, §2
For B1, the “OD 405 nm” value is 2.56 OD.
The same measure, in the same setting: the value for B2 was 3.2 OD; that for B3 was 1.53 OD; that for B4 was 3.27 OD.

Another assay deals with T4, TgSlyDser-Her3. Kind of assay: ELISA, antigen coated, hybridoma supernatant. On the procedure:
as §1, §2
B2: the “OD 405 nm” value amounted to 3.11 OD.
Still for that read-out and setting: the value for B3 was 1.57 OD; that for B4 was 3.44 OD.

The target in a further assay is T7, HER3 ECD-HRG complex (Heregulin-activated Her-3 ECD) (human, UniProt P21860 20-643).
T7 construct: receptor-ligand complex made by preincubating HER3 ECD with a five-fold molar excess of Heregulin; also called Heregulin/Her-3 ECD; Heregulin-complexed Her-3 ECD
Kind of assay: SPR, Interaction Map (TraceDrawer), two-state-kinetic no. 1, 25 C. On the procedure:
A Biacore T200 instrument (GE Healthcare) was mounted with a CM5 series sensor. The sensor was normalized in HBS-ET buffer (10 mM HEPES pH 7.4, 150 mM NaCl, 3 mM EDTA, 0.05% w/v Tween 20) according to the manufacturer's instructions. The sample buffer was the system buffer supplemented with 1 mg/ml CMD (Carboxymethyldextran, Sigma #86524). The system operated at 25° C. 6500 RU RAM-Fcγ (relative units of Fcγ-fragment RamlgG, GE Healthcare) were immobilized according to the manufacturer's instructions using amine coupling EDC/NHS chemistry on all four flow cells. The sensor was deactivated using 1M ethanolamine. […] Concentration dependent kinetics were measured. […] All analytes were injected for 5 min association time and 10 min dissociation time at 100 μl/min flow rate. The sensor capture system was regenerated by a 3 min injection at 10 μl/min of 10 mM glycine pH 1.7. Where possible kinetic data was evaluated using the Biacore T200 evaluation software.
For orientation: In SPR one partner is held on a chip, and binding of the other changes the refractive index at the surface.
On to B1, for which the Kd (commonly a measure of binding affinity in units of concentration) was 356 nM; the “Weight (contribution to the overall interaction)” value (shortened to “Weight”) is 77%; the off-rate (koff) (as a rule, the rate constant with which the complex falls apart) is 0.232 s⁻¹; the association rate constant (kon) (usually the rate constant with which the complex forms) was 652000 M⁻¹ s⁻¹.
The like results for B2 were, in that order, 419 nM, 79%, 0.0799 s⁻¹ and 191000 M⁻¹ s⁻¹.
In the case of B4, the Kd came out at 261 nM, the “Weight” value came to 69%, the koff was found to be 0.141 s⁻¹ and the kon came out at 541000 M⁻¹ s⁻¹.

A further assay deals with T7, HER3 ECD-HRG complex …. Kind of assay: SPR, Interaction Map (TraceDrawer), two-state-kinetic no. 2, 25 C.
In the case of B1, binding was characterised by a dissociation constant (Kd) of 15.7 nM, the “Weight” value turned out to be 7%, the off-rate constant (koff) stood at 0.000774 s⁻¹ and the kon amounted to 49400 M⁻¹ s⁻¹.
The like results for B2 were, in that order, 23 nM, 6%, 0.000449 s⁻¹ and 19500 M⁻¹ s⁻¹.
For B4, the dissociation constant (Kd) amounted to 62 nM, the “Weight” value was 13%, the koff is 0.000988 s⁻¹ and the kon was 15900 M⁻¹ s⁻¹.

In a further assay the target is T8, HER1, full length, on transfected HEK293 cells (human, UniProt P00533 25-1210).
T8 construct: HEK293 transiently transfected with a plasmid coding for full length HER1; also called EGFR
Kind of assay: IHC on HEK293 cells transiently transfected with full length HER1; NC = untransfected cells. On the procedure: All selected clones were tested for reactivity and specificity in IHC. […] After an additional fixation in formalin overnight the Agarose blocks were embedded in paraffin. Untransfected HEK293 cells were used as negative controls and treated accordingly to the transfected cells. After paraffin embedding 3 μm thin sections were prepared using a microtome. The sections were mounted on glass microscopy slides and dried for 2 h. All further steps of the immunohistochemical staining procedure were carried out using a Ventana Benchmark XT. The slides were dewaxed and antigen retrieval was performed by applying heat for 1 hour. For antigen retrieval the Ventana buffer CC1 was used. The antibodies were used at a concentration of 1 μg/ml. For the detection of bound antibody the Ventana UltraView detection kit was used.
As for B1, the binding result is given as “no binding”.
Turning to B3, the binding result is “no binding”.
Regarding B4, the binding result is recorded as “no binding”.
